Key:
[1] = biological target: mCherry-NIX (WT) (UniProt O60238); assay: immunoblot for dimers; immunoblot analysis of WT or OMP25C hybrids of BNIP3 and NIX expressed in B/N DKO cells
[2] = biological target: mCherry-BNIP3 (WT); assay: as above

Sequence of mCherry-BNIP3 (WT) (natural protein) (Q12983 whole entry): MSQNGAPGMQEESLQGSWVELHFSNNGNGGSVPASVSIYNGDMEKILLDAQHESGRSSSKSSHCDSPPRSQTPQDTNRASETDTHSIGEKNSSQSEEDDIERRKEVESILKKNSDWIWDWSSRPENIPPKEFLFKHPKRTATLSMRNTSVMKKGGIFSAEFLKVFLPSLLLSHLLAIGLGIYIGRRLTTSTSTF
Sequence of mCherry-NIX (WT), O60238 1-219 (natural protein; other documents disagree on this pair) (O60238 whole entry): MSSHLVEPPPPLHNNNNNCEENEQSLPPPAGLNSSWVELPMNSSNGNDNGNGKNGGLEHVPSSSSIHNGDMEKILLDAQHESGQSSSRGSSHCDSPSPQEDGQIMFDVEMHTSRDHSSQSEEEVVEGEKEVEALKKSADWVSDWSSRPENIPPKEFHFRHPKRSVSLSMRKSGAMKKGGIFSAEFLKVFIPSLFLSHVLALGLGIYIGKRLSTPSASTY

stoichiometry N [1] | stoichiometry N [2] | Substance
2 |  | mCherry-NIX (WT), O60238 1-219 (natural protein; other documents disagree on this pair)
 | 2 | mCherry-BNIP3 (WT) (natural protein)
